Results on eight molecules are retold here after publication PMC5737966 (Nature structural & molecular biology, 2017).

Like-named read-outs stand apart in the source and are kept apart here.

For assay [1], the target named is human β-cardiac short S1 (sS1) with a C-terminal GFP, wild type (human) (UniProt P12883). The assay can be described thus: MST.
Assay [2] deals with actin. The assay can be described thus: MST.
Assay [3] deals with heavy chain (HC) of the 2-hep HMM construct of human β-cardiac myosin. The assay is described as follows: stoichiometry of the purified complex.
Assay [4] concerns the target full-length recombinant human cardiac MyBP-C, nonphosphorylated (human, UniProt Q14896 1-1274). The assay can be described thus: MST.
Assay [5] addresses T1, human β-cardiac short S1 (sS1) with a C-terminal GFP, wild type (human, UniProt P12883 1-808). The assay is described as follows: MST.
Assay [6] has as its target T1, human β-cardiac short S1 (sS1) with a …. The assay can be described thus: MST. This is another data set of the same source.
The target of assay [7] is R453C human β-cardiac sS1 with a C-terminal GFP (human, UniProt P12883 1-808, R453C). The assay is described as follows: MST.
Assay [8] has as its target R249Q human β-cardiac sS1 with a C-terminal GFP (human, UniProt P12883 1-808, R249Q). The assay can be described thus: MST.
Assay [9] has as its target R403Q human β-cardiac sS1 with a C-terminal GFP (human, UniProt P12883 1-808, R403Q). The assay is described as follows: MST.
The target in assay [10] is MyBP-C (construct and phosphorylation state not told for these experiments) (human, UniProt Q14896 1-1274). The assay can be described thus: MST.
MyBP-C (construct and phosphorylation state not told for these experiments), sequence (Q14896 whole entry): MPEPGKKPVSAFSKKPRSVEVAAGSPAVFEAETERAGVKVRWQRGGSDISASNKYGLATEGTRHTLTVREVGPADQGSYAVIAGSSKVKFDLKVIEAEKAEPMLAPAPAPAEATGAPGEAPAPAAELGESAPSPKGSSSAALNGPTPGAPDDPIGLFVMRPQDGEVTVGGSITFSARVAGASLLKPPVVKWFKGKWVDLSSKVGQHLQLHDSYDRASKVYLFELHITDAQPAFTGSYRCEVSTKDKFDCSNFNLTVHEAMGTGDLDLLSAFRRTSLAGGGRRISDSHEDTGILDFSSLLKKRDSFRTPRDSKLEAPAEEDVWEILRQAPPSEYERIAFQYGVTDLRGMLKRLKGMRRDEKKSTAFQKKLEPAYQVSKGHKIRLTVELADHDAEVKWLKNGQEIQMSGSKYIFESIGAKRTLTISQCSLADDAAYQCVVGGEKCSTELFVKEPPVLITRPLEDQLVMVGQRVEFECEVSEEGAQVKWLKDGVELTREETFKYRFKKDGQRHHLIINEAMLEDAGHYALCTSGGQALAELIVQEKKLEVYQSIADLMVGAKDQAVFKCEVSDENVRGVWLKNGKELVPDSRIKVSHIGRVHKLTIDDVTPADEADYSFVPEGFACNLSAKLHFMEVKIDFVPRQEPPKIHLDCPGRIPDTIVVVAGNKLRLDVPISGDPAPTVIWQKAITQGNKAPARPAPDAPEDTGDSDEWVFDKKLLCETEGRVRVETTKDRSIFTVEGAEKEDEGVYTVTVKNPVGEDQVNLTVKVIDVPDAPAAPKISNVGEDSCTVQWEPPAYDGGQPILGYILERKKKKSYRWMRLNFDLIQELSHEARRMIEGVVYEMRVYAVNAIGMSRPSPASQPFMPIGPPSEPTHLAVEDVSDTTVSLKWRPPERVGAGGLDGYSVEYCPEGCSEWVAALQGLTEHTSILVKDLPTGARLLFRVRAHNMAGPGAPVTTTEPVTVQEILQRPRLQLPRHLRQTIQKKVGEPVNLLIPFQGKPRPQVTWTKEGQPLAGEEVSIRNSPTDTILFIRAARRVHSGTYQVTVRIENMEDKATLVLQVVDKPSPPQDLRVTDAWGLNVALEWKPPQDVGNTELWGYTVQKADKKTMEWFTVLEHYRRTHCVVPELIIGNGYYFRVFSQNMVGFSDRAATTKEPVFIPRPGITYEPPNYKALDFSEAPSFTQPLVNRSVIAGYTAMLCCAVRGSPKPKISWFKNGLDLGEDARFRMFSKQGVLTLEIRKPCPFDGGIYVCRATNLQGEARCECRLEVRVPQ

full-length recombinant human cardiac MyBP-C, nonphosphorylated, sequence (Q14896 whole entry): as above

For orientation: Kd means the equilibrium constant for the complex coming apart. In [1], actin (natural protein) had a Kd of 0.25 µM.
The molecule “MyBP-C (construct and phosphorylation state not told for these experiments) (from UniProt Q14896 1-1274) (natural protein)” yielded a Kd in assay [2] of 5 µM.
By stoichiometry N is commonly meant a count of units in the complex or per binding partner. In assay [3], “human cardiac myosin essential light chain (ELC) (from UniProt P08590 1-195) (natural protein)” registered a stoichiometry N of 1.

B1: human β-cardiac short S1 (sS1) labelled with Cy5 on cysteine residues (domain or fragment, UniProt P12883 1-808, looked up)
chain: MGDSEMAVFGAAAPYLRKSEKERLEAQTRPFDLKKDVFVPDDKQEFVKAKIVSREGGKVTAETEYGKTVTVKEDQVMQQNPPKFDKIEDMAMLTFLHEPAVLYNLKDRYGSWMIYTYSGLFCVTVNPYKWLPVYTPEVVAAYRGKKRSEAPPHIFSISDNAYQYMLTDRENQSILITGESGAGKTVNTKRVIQYFAVIAAIGDRSKKDQSPGKGTLEDQIIQANPALEAFGNAKTVRNDNSSRFGKFIRIHFGATGKLASADIETYLLEKSRVIFQLKAERDYHIFYQILSNKKPELLDMLLITNNPYDYAFISQGETTVASIDDAEELMATDNAFDVLGFTSEEKNSMYKLTGAIMHFGNMKFKLKQREEQAEPDGTEEADKSAYLMGLNSADLLKGLCHPRVKVGNEYVTKGQNVQQVIYATGALAKAVYERMFNWMVTRINATLETKQPRQYFIGVLDIAGFEIFDFNSFEQLCINFTNEKLQQFFNHHMFVLEQEEYKKEGIEWTFIDFGMDLQACIDLIEKPMGIMSILEEECMFPKATDMTFKAKLFDNHLGKSANFQKPRNIKGKPEAHFSLIHYAGIVDYNIIGWLQKNKDPLNETVVGLYQKSSLKLLSTLFANYAGADAPIEKGKGKAKKGSSFQTVSALHRENLNKLMTNLRSTHPHFVRCIIPNETKSPGVMDNPLVMHQLRCNGVLEGIRICRKGFPNRILYGDFRQRYRILNPAAIPEGQFIDSRKGAEKLLSSLDIDHNQYKFGHTKVFFKAGLLGLLEEMRDERLSRIITRIQAQSRGVLARMEYKKLLERR
modifications: Cy5-labeled cysteine residues
Take B1: the Kd in [4] was found to be 17 ± 2 µM.

B2: human cardiac myosin regulatory light chain (RLC) (natural protein)
chain: MAPKKAKKRAGGANSNVFSMFEQTQIQEFKEAFTIMDQNRDGFIDKNDLRDTFAALGRVNVKNEEIDEMIKEAPGPINFTVFLTMFGEKLKGADPEETILNAFKVFDPEGKGVLKADYVREMLTTQAERFSKEEVDQMFAAFPPDVTGNLDYKNLVHIITHGEEKD
As for B2, the stoichiometry N in [3] is 1.

B3: proximal part of human cardiac myosin subfragment 2 (proximal S2), wild type (domain or fragment, UniProt P12883 841-966, looked up)
chain: KSAEREKEMASMKEEFTRLKEALEKSEARRKELEEKMVSLLQEKNDLQLQVQAEQDNLADAEERCDQLIKNKIQLEAKVKEMNERLEDEEEMNAELTAKKRKLEDECSELKRDIDDLELTLAKVEK
Regarding B3, the dissociation constant (Kd) in assay [5] is 4 ± 1 µM; in assay [6] it was 46 ± 7 µM; in [7], over 90 µM; in assay [8], over 300 µM; in [9] it was 54 ± 4 µM.

B4: proximal S2 of human cardiac myosin labelled with Cy5 (domain or fragment, UniProt P12883 841-966, looked up)
chain: KSAEREKEMASMKEEFTRLKEALEKSEARRKELEEKMVSLLQEKNDLQLQVQAEQDNLADAEERCDQLIKNKIQLEAKVKEMNERLEDEEEMNAELTAKKRKLEDECSELKRDIDDLELTLAKVEK
modifications: Cy5 (site not stated)
B4 displayed an equilibrium dissociation constant (Kd) in assay [10] of about 7 µM.

B5: R870H mutant proximal S2 of human cardiac myosin (domain or fragment, UniProt P12883 841-966, looked up)
chain: KSAEREKEMASMKEEFTRLKEALEKSEARHKELEEKMVSLLQEKNDLQLQVQAEQDNLADAEERCDQLIKNKIQLEAKVKEMNERLEDEEEMNAELTAKKRKLEDECSELKRDIDDLELTLAKVEK
As to B5, the dissociation constant (Kd) in assay [6] was determined as 59 ± 2 µM.
